Assay results reported in publication PMC11437077.

Molecular target: mouse PD-1 wild type expressed on CHO cells (mouse) (UniProt Q02242)
Assay: biomembrane force probe (BFP), force-ramp spectroscopy (rupture force); PD-L1- or PD-L2-coated glass bead on a micropipette-aspirated RBC against a CHO cell expressing PD-1; continuous retraction until bond rupture; nominal loading rate 1000 pN/s; BFP spring constant 0.3 pN/nm

Chain of mouse PD-1 wild type expressed on CHO cells (mouse) (Q02242 25-288): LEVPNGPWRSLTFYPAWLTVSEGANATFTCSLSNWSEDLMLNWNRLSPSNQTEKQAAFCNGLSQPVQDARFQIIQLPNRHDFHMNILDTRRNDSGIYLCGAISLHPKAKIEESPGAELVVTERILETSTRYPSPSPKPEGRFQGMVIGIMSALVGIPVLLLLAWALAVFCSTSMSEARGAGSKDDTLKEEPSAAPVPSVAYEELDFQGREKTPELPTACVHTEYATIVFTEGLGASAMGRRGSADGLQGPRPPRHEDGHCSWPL
Chain of mouse PD-L2 with C-terminal biotin (Q9WUL5 20-221): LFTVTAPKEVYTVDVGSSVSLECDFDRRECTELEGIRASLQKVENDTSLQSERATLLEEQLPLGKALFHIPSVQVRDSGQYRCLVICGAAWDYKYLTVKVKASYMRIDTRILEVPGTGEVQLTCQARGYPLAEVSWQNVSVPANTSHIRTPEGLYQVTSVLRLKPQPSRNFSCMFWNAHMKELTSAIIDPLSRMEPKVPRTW

- F1/2 (force at which 50% of the bonds rupture): 12.1 pN
Substance: mouse PD-L2 with C-terminal biotin (from UniProt Q9WUL5 20-221) (ligand)
